The target in experiment [1] is T1, rat SEMA4D-His (rat, UniProt A0A8I6G5Q1 23-734).
T1 construct: not shown: His tag, detected with anti-6xHis-APC
The experiment can be described thus: receptor blocking; antibody dilution series pre-incubated with SEMA4D-His, binding to 293PLXNB1 cells (Plexin B1) read by flow cytometry. The procedure:
(§1) After washing, the cells were stained with anti-6xHis-APC (30 min, 4° C.), washed and analyzed by flow cytometry on FACS Canto II.

Experiment [2] addresses T2, cynomolgus monkey SEMA4D-His (cynomolgus monkey).
T2 construct: also called Cyno SEMA4D
The description is as above. The protocol:
as §1

In experiment [3] the target is T3, mouse SEMA4D-His (mouse, UniProt O09126 24-733, limits assumed).
T3 construct: not shown: His tag, detected with anti-6xHis-APC
T3 sequence (looked up): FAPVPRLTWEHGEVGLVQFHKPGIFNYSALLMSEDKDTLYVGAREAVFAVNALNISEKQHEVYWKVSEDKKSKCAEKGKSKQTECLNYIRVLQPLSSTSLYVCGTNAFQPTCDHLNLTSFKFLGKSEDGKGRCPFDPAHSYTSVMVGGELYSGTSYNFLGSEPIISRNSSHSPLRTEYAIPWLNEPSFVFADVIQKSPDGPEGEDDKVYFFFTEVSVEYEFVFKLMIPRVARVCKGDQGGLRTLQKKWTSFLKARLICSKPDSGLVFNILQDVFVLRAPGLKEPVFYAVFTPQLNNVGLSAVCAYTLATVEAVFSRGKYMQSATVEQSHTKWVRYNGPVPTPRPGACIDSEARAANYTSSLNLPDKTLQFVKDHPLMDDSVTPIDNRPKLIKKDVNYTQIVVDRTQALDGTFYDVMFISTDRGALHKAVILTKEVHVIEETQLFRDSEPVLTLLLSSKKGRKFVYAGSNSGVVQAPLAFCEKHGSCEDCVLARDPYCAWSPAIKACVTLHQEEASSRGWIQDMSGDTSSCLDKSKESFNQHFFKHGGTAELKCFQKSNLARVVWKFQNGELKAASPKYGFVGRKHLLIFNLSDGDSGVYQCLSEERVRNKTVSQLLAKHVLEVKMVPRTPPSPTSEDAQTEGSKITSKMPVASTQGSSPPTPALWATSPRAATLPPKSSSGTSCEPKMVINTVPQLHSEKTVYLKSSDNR
The experiment is described as above. The procedure: as §1

Experiment [4] addresses T4, human SEMA4D-His (human, UniProt Q92854 22-734, limits assumed).
T4 construct: also called CD100-His; not shown: His tag, detected with anti-6xHis-APC
T4 sequence (looked up): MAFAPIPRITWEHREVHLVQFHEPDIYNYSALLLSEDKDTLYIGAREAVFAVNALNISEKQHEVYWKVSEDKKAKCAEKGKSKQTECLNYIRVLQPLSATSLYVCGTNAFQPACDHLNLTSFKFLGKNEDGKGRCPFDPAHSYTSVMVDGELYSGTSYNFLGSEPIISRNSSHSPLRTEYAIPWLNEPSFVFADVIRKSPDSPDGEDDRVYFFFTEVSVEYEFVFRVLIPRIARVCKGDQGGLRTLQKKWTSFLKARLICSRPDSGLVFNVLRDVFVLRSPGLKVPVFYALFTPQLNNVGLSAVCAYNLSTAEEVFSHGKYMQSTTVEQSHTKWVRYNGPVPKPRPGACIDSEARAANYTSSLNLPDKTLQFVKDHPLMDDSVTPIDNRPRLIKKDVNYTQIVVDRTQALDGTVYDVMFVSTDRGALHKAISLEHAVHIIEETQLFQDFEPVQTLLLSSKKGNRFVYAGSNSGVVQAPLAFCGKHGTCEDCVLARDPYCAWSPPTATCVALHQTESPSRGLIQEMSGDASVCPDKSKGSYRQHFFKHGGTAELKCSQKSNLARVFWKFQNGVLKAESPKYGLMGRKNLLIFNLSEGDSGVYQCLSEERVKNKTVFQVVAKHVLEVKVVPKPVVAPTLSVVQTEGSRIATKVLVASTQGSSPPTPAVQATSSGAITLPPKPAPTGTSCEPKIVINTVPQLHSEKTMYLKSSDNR
The description is as above. The protocol:
as §1

The target of experiment [5] is T5, marmoset SEMA4D-His (marmoset, UniProt A0A8I3W811 22-734).
T5 construct: also called CD100-His; not shown: His tag
T5 sequence: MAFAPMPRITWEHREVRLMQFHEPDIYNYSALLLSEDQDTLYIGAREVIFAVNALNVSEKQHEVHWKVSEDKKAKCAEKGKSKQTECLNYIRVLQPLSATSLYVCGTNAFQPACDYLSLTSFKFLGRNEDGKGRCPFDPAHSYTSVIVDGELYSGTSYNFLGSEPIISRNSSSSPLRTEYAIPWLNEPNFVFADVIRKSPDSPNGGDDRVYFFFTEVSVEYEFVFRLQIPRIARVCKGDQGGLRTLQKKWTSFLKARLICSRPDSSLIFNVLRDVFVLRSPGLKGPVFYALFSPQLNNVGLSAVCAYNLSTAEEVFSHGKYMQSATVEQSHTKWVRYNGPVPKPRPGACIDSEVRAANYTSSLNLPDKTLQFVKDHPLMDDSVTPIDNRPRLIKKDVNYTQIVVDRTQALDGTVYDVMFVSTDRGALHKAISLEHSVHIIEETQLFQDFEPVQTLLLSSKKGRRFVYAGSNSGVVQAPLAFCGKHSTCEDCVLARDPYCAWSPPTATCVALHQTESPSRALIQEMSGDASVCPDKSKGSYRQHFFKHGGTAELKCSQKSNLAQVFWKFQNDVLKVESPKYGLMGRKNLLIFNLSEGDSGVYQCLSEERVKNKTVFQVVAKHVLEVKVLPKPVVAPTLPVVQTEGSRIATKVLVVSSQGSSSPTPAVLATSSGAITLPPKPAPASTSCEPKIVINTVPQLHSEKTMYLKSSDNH
In words: BIACORE; antibody captured with goat anti-human IgG Fc, marmoset SEMA4D-His as analyte. The protocol:
The binding characteristics of MAb D2517 were determined by BIACORE assay, as follows.

The results in this text go back to patent publication US20210032329A1 (VACCINEX, published 2021).

B1: MAb D2517 (antibody, V domains shown)
VH: EVQLVESGGGLVQPGGSLRLSCAASGFIFSDYWMVWVRQAPGKGLEYVAHMNQDGGARYYAESVRGRFTISRDNAKNSLYLQMNSLRAEDTAVYYCARDPWGYDSWGQGTLVT
VL: not shown
B1: in experiment [1], the EC50 was found to be 1.5 nM. In experiment [2], this molecule displayed a concentration giving a half-maximal response (EC50) of 1.2 nM. Moreover, in experiment [3], the concentration for a half-maximal effect (EC50) is 1.2 nM. Further, in experiment [4], the half-maximal effective concentration (EC50) amounted to 1 nM. In experiment [5], this molecule showed a Ka of 2.47e+08 M⁻¹, a dissociation constant (Kd) of 4 nM, a koff of 0.0032 s⁻¹ and a kon of 789000 M⁻¹ s⁻¹.
